Measured values reported in the DeepSol protein solubility set.

Experiment: soluble on expression in E. coli; label from the status in PepcDB or PDB records

| Sequence | soluble on expression in E. coli |
| --- | --- |
| MGDVIKVLDAQVRESLSGLPELHINFRARIILNPEDPRVDSIPPLEEVRIATYTRKKIGDIEPGDRFIEIRGTIAKVYRVLTYDACPECKKKVDYDPGTGVWICPEHGEVEPIKMTILDFGLDDGTGYIRVTLFGDDAEELLGVSSEEIAEKIKELENSGLTTKEAARKLAEEEFYKIIGKEIVVRGNVIEDRFLGLILRASSWEEVDYRKEIENIKEELEKLGVMLEHHHHHH | soluble |
| MTVAQLIDIDAKKTKTSNEVYQTSTMLALLDGIYDGVISFEDLKKHGDFGIGTFDQLDGEMIAFDNEFYHLRSDGSAEKVEPEETTPFATVTFFEKEMSYTVERPMNREEVEALLHELMPSKNLFYGIRMDGTFREVRTRTVPRQEKPYTPLVEVTKSQPIFSFENTEGTLAGFWTPDYAQGIGVAGFHLHYIDDERSGGGHVFDYVIENCTIQICQKAHMHLALPETADFMAAALSRENLEDNIATAEGAE | not soluble |
| MSLGSPKSVRIVVVGDKGTGKSSLIVAAATDSFPPNVPPVLPDYKLPIEFFPDGIPVTIVDTSSRPEDRDIVAEELKRADAVVLTYACDRPETLERLSEYWLPELRRLEVKIPIIVAGCKLDFRDDNNQVSLEQVMSPIMQQFREIETCIECSALKQLQAQEVFYYAQKTVLHPTGPLFDQEGHHHHHH | soluble |
| MGSDKIHHHHHHANQKSEHDHVAKVPKSYLPSGSVMAKEASANLKLSEKLSLIDGQWDSTTDDAASYEMDEQDYQAVATCRKSIEKLYDEKLYPVNLSPDYSNWYTWEAAAKKASDNTFNTYTAYYWIIRFEKYDGTQNHTIWMLEDGTIIMAKAHMKDISDMSEYKEVLQADDESQAENDLSAYKGYFDYSGIDFSKLNLISETTAVEQKNNESYEVLQFLQENEYVYAIHEK | not soluble |
| SDAALLLNVEGVKKTILHGGTGELPNFITGSRVIFHFRTMKCDEERTVIDDSRQVGQPMHIIIGNMFKLEVWEILLTSMRVHEVAEFWCDTIHTGVYPILSRSLRQMAQGKDPTEWHVHTCGLANMFAYHTLGYEDLDELQKEPQPLVFVIELLQVDAPSDYQRETWNLSNHEKMKAVPVLHGEGNRLFKLGRYEEASSKYQEAIICLRNLQTKEKPWEVQWLKLEKMINTLILNYCQCLLKKEEYYEVLEHTSDILRHHPGIVKAYYVRARAHAEVWNEAEAKADLQKVLELEPSMQKAVRRELRLLENRMAEKQEEERLRCRNMLSQGATQPPAEPPTEPPAQSSTEPPAEPPTAPSAELSAGPPAEPATEPPPSPGHSLQH | soluble |
| MGSDKIHHHHHHMMQTDQRILLVGTPSERLSRLCCIFEFLGEQIDIITIEKLSTCLQETRFRALVISIDNMSADALKLVASQYPWQPILLFGHVGELQVSNVLGHIEEPLNYPQLTELLHFCQVYGQVKRPQVPTSANQTKLFRSLVGRSDGIANVRHLISQVATSDATVLVLGQSGTGKEVVARNIHYLSERRDGPFIPVNCGAIPPELLESELFGHEKGSFTGAISSRKGRFELAEGGTLFLDEIGDMPLQMQVKLLRVLQERVFERVGGTKTINADVRVVAATHRDLETMISSNEFREDLYYRLNVFPIEMPALSERKDDVPLLLQELVSRVYNEGRGKVRFTQRAIESLKEHAWSGNVRELSNLVERLTILYPGGLVDVNDLPIKYRHIDVPEYSVELSEEQQERDALASIFTSEEPVEIPETRFPSELPPEGVNLKDLLAELEIDMIRQALEQQDNVVARAAEMLGIRRTTLVEKMRKYGMTKE | not soluble |
| MTGLDKIISQILEDAGKEAQEISEKAKSEAEAVLAEAKAGCKKIAAENDEKLAGEATSYMERIKSSAELKKRQAVLLAKQQVITEMLEQAYEALLKKEGEEYFALIGKMLDKYVLPKTGEIYFSEKDLDRMPQGFEAVIEKAAVSKGGSLTLVKEPKNIDGGFILVYGGIEENCSFRALLAARRDELSDKVHAMLFS | not soluble |
| RQDARERERLAVLAASRTALAPLDGPPQVLWTSDREEVLWASARTPDGLLVVPGTQGERVVRALDPATGDVVWERELLPPRDTAPAPNEDVAGASCVGHGAAGDLLACLASDAMTVFDERTTDIRYVAPTVVRLVLLDPQDGTVVADLSDAVAGTGTAPAYVALGDLVVVSSVVDDATRVVAVAPDGSVAWRTEVPPSTRPAPGLPGLRRADVLALGDHLVVATAEEMRLLDATGATVRTVPLADDESLGGAEGTTAFARTGLDRVTLMQVGSEVVARGEGTKVVRADHVGELPGGRVRADVDDGSDPRLVLTSDAEGLHGWDAEGVRRWSADVQVTRSAMVLAGRVHATTRADALVTFDARTGAELWRRDGLVLDQAPLADGRVLLVRERGADGAALDLVALDVADGEVAWRTPWPEGVDQLQAVFGVIVGLSYDVEGEDWSVTALG | not soluble |
| MSKVALFAGGDLSYISRDFDYFVGIDRGSLFLLENGLPLNMAVGDFDSVSQKAFTDIKEKAELFITAHPEKNDTDTELALKEVFARFPEAEVTIFGAFGGRMDHLLSNIFLPSDPGIAPFMAQIALRDQQNMITYRPAGQHLIHQEEGMTYVAFMAEGEADLTITGAKFELTQDNFFKKKIYSSNAFIHQPITVSLPSGYLIIIQSKDWS | soluble |
| MLVCNPYEVVIHGTTSSGKIFRPSDWAERLCGILSSFTKDHRLSYSKWVRPILVDNIRCVAVDKKLETDNPQMFRFLMDFAADNDLRVIDCKALLEEREQGGQNNPADEHVMLAQAIEEKHAAEKAQEQTASGASYVLREIGADDTATAFAALSVLRSALTDINRFTEQINKVQRPQGYRLLGIFEEGKHNAVAVCGFREACTLASGRHIHIDDIVTLPQSRRKGYASRLLEEVRKIGAETGVTKIHLNVHVNHDRADAHRLYFKNGFEICAYHFRCDPK | not soluble |
| KYDNKEFSSAVGHYGVGNGPYFMIPGYGPYTLREVTDTVDGMYLPLSYLNIWAGLGKWALEGLEKRALLVPQEAQLDSSPDPYVLTRDVYIQRQNFKAEIDTVEEVNPEEEALLDEYLDEF | not soluble |
| MTSTFDRVATIIAETCDIPRETITPESHAIDDLGIDSLDFLDIAFAIDKAFGIKLPLEKWTQEVNDGKATTEQYFVLKNLAARIDELVAAKGALEHHHHHH | soluble |
| MGSDKIHHHHHHMNYLKLKQDVQAGRVAPVYFMYGTELFLMEDLIQDILSVTLSDEERDMNVSSYSLTDVPIEAALEEAETVPFFGSKRVVILKDAALFTSQKLDVEHDVKRLEQYILNPVPETVLLIMAPYEKLDERKKITKLIKKESLVLEAKPLDEGEAKAWLSSLASELQVEMDEKAIETLLGMTGLRLTQLASEMNKLALYVGEGGIIRSEDVTLLVAKTLDQNIFDLIDFAINQRTHQALSLYHELLKQKEEPLKLLALLTRQFRIMYQVKELGRRGYTPNQMAKPLKIHPYVAKLAGKKAASMSDQLLYSLIEKAADTEFAIKSGKVDKVLALELFLLTMGSRESVG | not soluble |
| MGSDKIHHHHHHAAGSPEEDMEDRVRIDPVAGGYYPSISPSAQTRGATPDGETLKDRPIFLLEDGSTIRLVVYDDAKNLLEEYSKAYLVRNAGTSGSSLLYPCEVDDNGAVISSSSTPLYMKAGTYYFRILSPAKALNSKGFVNIGNGEYLLATDDRYTQTAMTAVTITKIDEGGTLNNVQTLYLPPIINQTARMQFTVRAGEGVHTLEMLAEGIEISGIQQPLDNTTSFDWVNGDVLPVKVGDQSASVRITQATRNADNSLVAHTGVLPTDARSHSISVLLNLKVNGNPTQYQMLLTGLYLTAGHSYNYTATVKISNGVTVLTWQNRSWTENVVMDK | not soluble |
| MSFLKCGVCTEDYSNVITNRHPKNLTCGHSICKACSSKLVSNFKILCPFCRKTTELRENENLQTNFALLEAISLFNDINESVTEPRSSGAPPNCEEHTYNLAEFVCISPNCSSRSKLMCRTCEEFGVHAGHRKGLLQVEAKKVRQNLLERQRKLQVNKKQVDDKIQALEKAALKKNDELYKEKYDEITRHYDRIRSSVAEREKTSKEVLKKSVLTSEEDNRMGQISNHVIRHLLEKKCEEVEQLVGMTDFELYRVKDKVDWNDESFSFSDVKEKPPMELKTLHVKLPEFRFEDSS | not soluble |
| MSKNIGLNAIEMSYLRQSLSLSAAQVGQLTNHSEAEVLAWENAETQAPELAQKKLLDIDDIIEMQVLNTTDGIEALFKKEPKRHLAFVVYPTQAIYTQYNPEFLSSLPLTELYNTAAWRIKKECKLVLEVDVSLINLNVEAYKAYREQNGLSESRESRAKWAATQL | soluble |
| TLAFCRFSAPGIYFLEKLFHPVASMLVRSTTFLNKHFAKKNHNISVDELSHALELTDKAEISEENNILEGIIRFGGETVKEVMTSRLDMVDLDVRTPFKEVMQCIIENAYSRIPIYSGSRDNIKGVLYIKDLLPHVNKGDNFRWQSLIRPAYFVPETKMIDDLLRDFQANKIHIAIVVDEFGGTSGLVTMEDIIEEIVGEIHDEYDD | not soluble |
| NTDELMRAVQPRVNPKLLYVIASTLRLYPLAKARLEIIRQTHITRGIDVHSIRGRWGLVLPLVVGLVDNAAQRARPLQRTGIGHSGPRTVLRPVPVMTHDVIIQVLAVCTTIAVCIWSIF | not soluble |
| MSETIEIDELVFSVKRSTRRRTVGVTVERDKSLVAHLPQGVALDVATRLIASKLLWVHQKLAEHGETARDDVFRIPEFVDGEGFHLLGKHYRLKLVDVPKNVTGVPSVRFEGDRILLRREQAASGGKRIEEYYTRAAHPYLNETVQRWKRIVGVEPGRFVQVMDLGYRWGSCSEDGTLNFHWRTMQLPPRIIEYVVVHELVHIKVPNHSEKFWKMIGSVMPDYESRKAWLKQKGGELLEHHHHHH | not soluble |
| MGSDKIHHHHHHLAARNFPPVLPFSPRKIAVLHAKAVGDFIVILPALDAIKRTYPEAELILLAKPWVKEFFSGRPSPVDRVLSLPPLAGVNDPVESKGRVPSTGSGVYPVEVELFCQAMQGEKLDVVIHMQGDGKSVNPFINKFAARVTAGMCNPPAESLDRSIPYVHYQSEVLRNLEVASLIGARTTSTGFEPRIEVTESDEQETESVRQTIKGKPYVVIHPGADDIRRVWPAVRFAEAADCLLEKGYAVVVTGTPKEEERVATVIRAMSRPAIPCTRLGLCGLAALLQHSALVISNDTGPLHLARAVGARTVGIYWAPNILNWGPLSRDRHRLAIGWQLECPQCGIRPVSPWPFQPQTSDCSHPYSFVESVPVAEVLALATELLGLTTEH | not soluble |
| MMRRTLENRNAQTKQLQTAVSNVEKHFGELCQIFAAYVRKTARLRDKADLLVNEINAYAATETPHLKLGLMNFADEFAKLQDYRQAEVERLEAKVVEPLKTYGTIVKMKRDDLKATLTARNREAKQLTQLERTRQRNPSDRHVISQAETELQRAAMDASRTSRHLEETINNFERQKMKDIKTIFSEFITIEMLFHGKALEVYTAAYQNIQNIDEDEDLEVFRNSLYAPDYSSRLDIVRANSKSPLQRSLSAKCVSGTGQEAGWAATCQTLI | soluble |
| MGSDKIHHHHHHMNEAQQLQQMQPLLYKQLQKSFEHGRLAHAYLFEGDTGTGKQEFGLWMAKHVFCTNLVNQQPCNECHNCVRINENEHPDVLRIAPDGQTIKVNQIRELKAEFSKSGVETAKKVFLIQEADKMSTGAANSLLKFLEEPEGQILAILETTSLSRILPTIQSRCQTLHFQPLVKKTLIDRLIKQGIGEKTATLLAELTNSFEKAVEISQDEWFNEAREIILQWFNYLKSNDLQAFIYVQKKMVKVFKEKEQQALSFDLLMVYYRQLLEESVATQQAKKVTEEQAERLALILKARQKWTANVSWQNVCEQLVIQMIHPKS | not soluble |
